In US20040121411:

How the values were obtained:
[1] = system: radiolabeled βAPP-C100 polypeptide mimic
[2] = system: radiolabeled βAPP-C83 polypeptide mimic

solubilized gamma-secretase complex (gamma-secretase associated with PS1) from HeLa cell membranes
cleavage of 35S-labeled substrate, SDS-PAGE and phosphorimager [1]: The radiolabeled βAPP-C100 substrate was cleaved by the gamma-secretase complexes present in the solubilized protein and protein complex preparation (FIGS. 6 and 7) and the affinity enriched protein preparation (FIG. 8), to yield a 6 kDa cleavage product
cleavage of 35S-labeled substrate, SDS-PAGE and phosphorimager [2]: The radiolabeled βAPP-C83 substrate was also cleaved by the gamma-secretase complexes present in the solubilized protein and protein complex preparation (FIG. 7) and the affinity enriched protein preparation, to yield a 6 kDa cleavage product
